Laboratory results published in article PMC5749160, “Disruption of an RNA-binding hinge region abolishes LHP1-mediated epigenetic repression”.

Molecular target: T1, GST-LHP1 (Arabidopsis thaliana (Col-0 cDNA), UniProt Q946J8 1-445)
T1 sequence: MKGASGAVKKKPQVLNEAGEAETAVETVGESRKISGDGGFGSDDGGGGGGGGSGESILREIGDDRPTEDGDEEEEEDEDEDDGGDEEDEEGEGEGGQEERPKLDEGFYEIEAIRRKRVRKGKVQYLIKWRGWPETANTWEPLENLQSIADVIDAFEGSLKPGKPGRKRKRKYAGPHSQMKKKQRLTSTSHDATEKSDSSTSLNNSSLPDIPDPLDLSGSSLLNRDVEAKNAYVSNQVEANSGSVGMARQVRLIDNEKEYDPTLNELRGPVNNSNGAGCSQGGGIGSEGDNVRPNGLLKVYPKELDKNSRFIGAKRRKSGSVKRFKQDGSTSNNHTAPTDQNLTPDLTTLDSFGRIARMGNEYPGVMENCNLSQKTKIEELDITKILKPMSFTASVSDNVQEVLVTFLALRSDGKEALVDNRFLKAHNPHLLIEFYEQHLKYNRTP
Experiment: EMSA; EMSA: 20 mM HEPES-KOH pH 7.5, 100 mM KCl, 0.05% NP-40, 10 nM Cy5 probe (1 uL of 100 nM + 9 uL protein), 30 min room temperature; 1.6% TBE-agarose gel
Conditions: protein: recombinant; tags: N-terminal GST (pGEX-4T-1); label: 5' Cy5; single-stranded

## CUCCUCCGGCGAUAAGUACGCCUUUUCCUUACCUGGGUUU (ssRNA) [FLC 40-nt ssRNA]
  Kd: ~0.2 µM
